The labels stand for the following.
B1: anti-tau antibody MC1 expressed from viral genome construct MC1HF.F2AL (TAU_ITR72; SEQ ID NO: 2061) (antibody, V domains shown)
VH: QVQLQQSGAELMKPGASVKISCKATGYTFSNYWIEWVKQRPGHGLEWIGEILPGSDSIKYNENFKGKATFTADTSSNTAYMQLSSLTSEDSAVYYCARRGNYPDYWGQGTTLTVSS
VL: DVVMTQTPLSLPVSLGDQASISCRSSQSLVHSNGNTYLHWYLQKPGQSPKLLIYKVSNRFSGVPDRFSGSGSGTDFTLKISRVEAEDLGVYFCSQSTHVPLTFGAGTKLELKR
B2: anti-tau antibody MC1 expressed from viral genome construct MC1HF.P2AL (TAU_ITR73; SEQ ID NO: 2062) (antibody, V domains shown)
VH: B1 VH
VL: B1 VL
B3: anti-tau antibody MC1 expressed from viral genome construct MC1LF.P2AH (TAU_ITR83; SEQ ID NO: 2072) (antibody, V domains shown)
VH: B1 VH
VL: B1 VL
B4: anti-tau antibody MC1 expressed from viral genome construct MC1LP2AH (TAU_ITR82; SEQ ID NO: 2071) (antibody, V domains shown)
VH: B1 VH
VL: B1 VL
B5: anti-tau antibody MC1 expressed from viral genome construct MC1LF.F2AH (TAU_ITR78; SEQ ID NO: 2067) (antibody, V domains shown)
VH: B1 VH
VL: B1 VL
B6: IPN002 antibody expressed from CAG-IPN002-HF.T2AL (TAU_ITR1) (antibody, V domains shown)
VH: EVHLVESGGALVKPGGSLKLSCAASGFSFSKYGMSWVRQTPDKRLEWVATISSSGSRTYYPDSVKGQFTISRDNAKNTLYLQMSSLKSEDTAMYYCSISWDGAMDYWGQGTSVTVSS
VL: DVLMTQTPLSLPVSLGDQASISCKSSQSIVHSNGNTYLEWYLQKPGQSPKLLVYKVSNRFSGVPDRFSGSGSGTDFTLKISRVEAEDLGTYYCFQGSLVPWAFGGGTKLEIK
B7: IPN002 antibody expressed from CB6-IPN002-HF.F2AL (TAU_ITR3) (antibody, V domains shown)
VH: B6 VH
VL: B6 VL
B8: IPN002 antibody expressed from CAG-IPN002-HF.F2AL (TAU_ITR2) (antibody, V domains shown)
VH: B6 VH
VL: B6 VL
B9: IPN002 antibody expressed from CB6-IPN002-LF2AH (TAU_ITR11) (antibody, V domains shown)
VH: B6 VH
VL: B6 VL
B10: IPN002 antibody expressed from CAG-IPN002-LT2AH (TAU_ITR10) (antibody, V domains shown)
VH: B6 VH
VL: B6 VL
notes: Full antibody
B11: IPN002 antibody expressed from CB6-IPN002-HF.T2AL (TAU_ITR4) (antibody, V domains shown)
VH: B6 VH
VL: B6 VL
B12: IPN002 antibody expressed from CAG-IPN002-LF2AH (TAU_ITR9) (antibody, V domains shown)
VH: B6 VH
VL: B6 VL
B13: IPN002 antibody expressed from CB6-IPN002-LT2AH (TAU_ITR87) (antibody, V domains shown)
VH: B6 VH
VL: B6 VL
notes: Full antibody
B14: IPN002 Fab_ext expressed from TAU_ITR130 (CAG, LT2AH) (Fab, V domains shown)
VH: B6 VH
VL: B6 VL
notes: Extended Fab
B15: IPN002 Fab_ext expressed from TAU_ITR124 (CBA, hGbin, HF.T2AL) (Fab, V domains shown)
VH: B6 VH
VL: B6 VL
B16: IPN002 Fab_ext expressed from TAU_ITR128 (CAG, HF.T2AL) (Fab, V domains shown)
VH: B6 VH
VL: B6 VL
B17: IPN002 Fab_ext expressed from TAU_ITR129 (CBA, hGbin, LT2AH) (Fab, V domains shown)
VH: B6 VH
VL: B6 VL
notes: Extended Fab
B18: IPN002 Fab expressed from TAU_ITR123 (CBA, hGbin, HF.T2AL) (Fab, V domains shown)
VH: B6 VH
VL: B6 VL
B19: IPN002 Fab expressed from TAU_ITR127 (CAG, HF.T2AL) (Fab, V domains shown)
VH: B6 VH
VL: B6 VL

The results in this text go back to US20220339270A1 (published 2022).

T2 sequence (P10636 other isoform, or with tags, fused parts or gaps limits assumed): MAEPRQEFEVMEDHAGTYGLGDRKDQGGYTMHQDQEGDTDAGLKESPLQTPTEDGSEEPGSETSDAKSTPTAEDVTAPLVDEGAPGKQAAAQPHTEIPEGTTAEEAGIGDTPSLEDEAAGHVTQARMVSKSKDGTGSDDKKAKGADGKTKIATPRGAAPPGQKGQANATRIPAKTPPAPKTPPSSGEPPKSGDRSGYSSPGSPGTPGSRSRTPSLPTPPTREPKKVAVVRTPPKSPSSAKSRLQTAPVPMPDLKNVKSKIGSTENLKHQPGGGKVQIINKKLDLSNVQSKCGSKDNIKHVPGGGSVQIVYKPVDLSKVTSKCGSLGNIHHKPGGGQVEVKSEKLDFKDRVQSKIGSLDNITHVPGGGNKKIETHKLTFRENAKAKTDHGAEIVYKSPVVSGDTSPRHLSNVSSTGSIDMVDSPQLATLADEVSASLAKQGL

For the first experiment, the target named is T1, extracellular tau in the form of paired helical filaments (ePHF tau) (UniProt P10636-8 1-441, limits assumed).
T1 construct: Aggregated, hyperphosphorylated tau preparation; not a single defined polypeptide
T1 sequence (P10636 other isoform, or with tags, fused parts or gaps limits assumed): as above
Put plainly: ePHF tau ELISA, ePHF coated; antibody at 500.0 ng/ml; anti-mouse-HRP.
In turn, B1 registered an OD450 of 1 OD450.
As for B2, the OD450 is 0.9 OD450.
Same read-out and setting: next, B3: 0.4 OD450.
The molecule B4 yielded an OD450 of 0.7 OD450.
The same measure, in the same setting: then B5, with 1 OD450.

Another experiment concerns the target T2, wild-type tau (441 amino acids; tau441; NP_005901.2) (human, UniProt P10636 1-758).
T2 construct: Unphosphorylated recombinant tau441 used in the wild-type tau ELISA; also called wt tau441; wtTau
In words: wild-type tau ELISA, ExpiCHO supernatant.
On to B6, for which the binding result is reported as “binds”.
Same read-out and setting: next, B7: “binds”; B8: “binds”; B9: “binds”.
Same read-out and setting: then B10, with “binds”.
The same measure, in the same setting: next, B11: “binds”.
On to B12, for which the binding result is on record as “binds”.
With B13, the binding result is given as “binds”.

The target of another experiment is T1, extracellular tau in the form of paired …. Put plainly: ePHF tau ELISA, ePHF coated; antibody at 0.7 ng/ml; anti-mouse-HRP.
B1 displayed an OD450 of 0.1 OD450.
In turn, B2 yielded an OD450 of 0.1 OD450.
On the same count and under the same terms, then B3, with 0.1 OD450; and B4, with 0.1 OD450; and B5, with 0.1 OD450.

The next experiment shares this target. Put plainly: ePHF tau ELISA, ePHF coated; antibody at 55.6 ng/ml; anti-mouse-HRP.
In turn, B1 yielded an OD450 of 0.5 OD450.
On the same count and under the same terms, then B2, with 0.4 OD450; and B3, with 0.1 OD450.
The same measure, in the same setting: next, B4: 0.2 OD450; B5: 0.4 OD450.

For another experiment the target is unchanged. Put plainly: ePHF tau ELISA, ePHF coated; antibody at 166.7 ng/ml; anti-mouse-HRP.
B1: the OD450 was 0.7 OD450.
Turning to B2, the OD450 was 0.6 OD450.
Still for that read-out and setting: then B3, with 0.2 OD450; and B4, with 0.4 OD450.
For B5, the OD450 worked out at 0.7 OD450.

For a further experiment the target is unchanged. Put plainly: ePHF tau ELISA, ePHF coated; antibody at 18.5 ng/ml; anti-mouse-HRP. A general note: ELISA stands for enzyme-linked immunosorbent assay.
The molecule B1 had an OD450 of 0.3 OD450.
Still for that read-out and setting: then B2, with 0.2 OD450; and B3, with 0.1 OD450; and B4, with 0.1 OD450.
Same read-out and setting: then B5, with 0.2 OD450.

The next experiment has the same target. In words: ePHF tau ELISA, ePHF coated; antibody at 2.1 ng/ml; anti-mouse-HRP.
Molecule B1 gave an OD450 of 0.1 OD450.
Molecule B2 registered an OD450 of 0.1 OD450.
The same measure, in the same setting: next, B3: 0.1 OD450; B4: 0.1 OD450; B5: 0.1 OD450.

A further experiment has the same target. Put plainly: ePHF tau ELISA, ePHF coated; antibody at 1000.0 ng/ml; anti-mouse-HRP.
As for B1, the OD450 was 1.1 OD450.
Still for that read-out and setting: next, B2: 0.9 OD450.
B3 showed an OD450 of 0.6 OD450.
Molecule B4 had an OD450 of 0.8 OD450.
Same read-out and setting: then B5, with 1.1 OD450.

For another experiment the target is unchanged. Put plainly: ePHF tau ELISA, ePHF coated; antibody at 6.2 ng/ml; anti-mouse-HRP.
The molecule B1 registered an OD450 of 0.2 OD450.
Molecule B2 registered an OD450 of 0.1 OD450.
The same measure, in the same setting: then B3, with 0.1 OD450; and B4, with 0.1 OD450.
B5: the OD450 worked out at 0.1 OD450.

The target of a further experiment is T2, wild-type tau (441 amino acids; tau441; …). Put plainly: wtTau ELISA.
Regarding B14, the binding result was “binds”.
For the molecule B15, the binding result is “binds”.
Still for that read-out and setting: then B16, with “binds”; and B17, with “binds”.
For B18, the binding result is “binds”.
On the same count and under the same terms, next, B19: “binds”.
